Data as given in US20240376151A1, “STAPLED PEPTIDES AND METHODS THEREOF” (FOG PHARMACEUTICALS, INC., priority 2022, published 2024).
Ends that are not written are not given here.

Target: T1, RNF31 PUB domain (Homo sapiens, UniProt Q96EP0)
T1 construct: MBP-TEV (N, cleaved yes); made in house; host or cells: E. coli BL21 (DE3) pLysS
T1 sequence (Q96EP0 1-179): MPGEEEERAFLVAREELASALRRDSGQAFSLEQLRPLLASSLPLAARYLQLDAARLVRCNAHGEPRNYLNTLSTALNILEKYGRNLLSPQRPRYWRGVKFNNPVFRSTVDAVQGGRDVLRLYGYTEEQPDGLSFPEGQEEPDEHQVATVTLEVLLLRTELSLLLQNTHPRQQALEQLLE
Assay: Phage Library Screening with NGS, RNF31 PUB domain
Assay type: binding
Details: for Phage library screen NGS readout, Target Concentration 10 / Phage library screen NGS readout, Target Concentration 30 / Phage library screen NGS readout, Target Concentration 100 / Phage library screen NGS readout, Target Concentration 300 / Phage library screen NGS readout, Target Concentration 1000: RNF31 PUB domain clusters C41-C45; for Phage library screen NGS readout, BLANK: clusters C41-C45

[1] = target concentration 1000, first column
[2] = target concentration 1000, second column

Sequence	Phage library screen NGS readout, Target Concentration 10	Phage library screen NGS readout, Target Concentration 30	Phage library screen NGS readout, Target Concentration 100	Phage library screen NGS readout, Target Concentration 300	Phage library screen NGS readout, Target Concentration 1000 [1]	Phage library screen NGS readout, Target Concentration 1000 [2]	Phage library screen NGS readout, BLANK (column 1 of 5)	Phage library screen NGS readout, BLANK (column 2 of 5)	Phage library screen NGS readout, BLANK (column 3 of 5)	Phage library screen NGS readout, BLANK (column 4 of 5)	Phage library screen NGS readout, BLANK (column 5 of 5)
DPALEDCQWAALYCDEY	0	0	1	2	7	9	1	1	1	0	0
DPATEACFDAAIECTYY	0	0	0	2	7	5	0	0	0	0	0
DPAWWSCMYAAWTCDDT	1	10	0	7	14	15	0	2	2	1	1
DPALEICWDAAIQCSYV	2	3	4	47	186	171	2	0	0	3	1
DPATWWCLYAAEDCVNI	0	1	0	2	6	6	0	0	0	0	4
DPALSHCTVAAMVCSTY	1	1	1	11	96	69	0	0	2	0	0
DPALRDCLDAAIMCTYT	0	1	0	4	5	7	0	0	0	0	0
DPAWMDCLYAAYDCQHM	2	2	0	9	29	24	1	1	1	0	0
DPAEQFCLYAAYDCYSE	2	0	0	2	18	9	1	3	1	0	0
DPAMIDCFLAAQVCATY (not fully specified; cysteine pairing not given here)	0	0	0	1	6	6	0	0	0	0	0
DPAWWNCLYAAYECNHA	1	0	0	3	9	5	0	0	0	2	0
DPAYWDCLYAAWSCDIL	0	1	0	4	9	7	1	1	1	0	0
DPAYEDCAWAALYCDMT	0	0	0	10	70	64	0	0	0	0	0
DPAFHDCQFAAAVCSTY	0	0	0	3	26	26	0	0	0	0	0
